From US20190218277A1 (Chugai, published 2019) come the findings set out here.

Residue numbers refer to the chain shown, from its start.

The chains are these.
T1: human FcγRIIa (167R) (human, UniProt P12318 36-217)
T1 construct: also called human FcγR2a allelic variant 167R
T1 chain: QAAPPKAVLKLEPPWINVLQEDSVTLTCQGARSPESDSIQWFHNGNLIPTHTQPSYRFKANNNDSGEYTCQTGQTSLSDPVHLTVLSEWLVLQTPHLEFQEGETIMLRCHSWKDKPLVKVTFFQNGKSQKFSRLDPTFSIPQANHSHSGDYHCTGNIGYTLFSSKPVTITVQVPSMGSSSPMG

T2: mouse FcγRIIb (mouse, UniProt P08101 30-210)
T2 construct: also called mFcγRIIb; mouse FcγR2b
T2 sequence: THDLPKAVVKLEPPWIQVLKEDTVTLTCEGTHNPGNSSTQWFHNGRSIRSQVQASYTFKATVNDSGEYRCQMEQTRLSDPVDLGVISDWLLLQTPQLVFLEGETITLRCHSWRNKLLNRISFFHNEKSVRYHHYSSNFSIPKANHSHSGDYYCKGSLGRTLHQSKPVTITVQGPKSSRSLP

T3: human FcγRIIa (167H) (human, UniProt P12318 36-217)
T3 construct: also called human FcγR2a allelic variant 167H
T3 sequence: T1 chain with R133H

B1: Anti-CD154 antibody (SLAPH0336a/SLAPL0336a) with Fc variant LALA+ACT3 (SG1044) (antibody)
heavy: EVQLVESGGGSVKPGGSLKLSCAASGFTFSDHYMYWVRQTPEKRLEWVAIISGGGSYTSYPDSMKGRFTISRDNAKNILHLQMSSLKSEDTAMYYCTRESNGKPGFAYWGQGTLVTVSAASTKGPSVFPLAPSSKSTSGGTAALGCLVKDYFPEPVTVSWNSGALTSGVHTFPAVLQSSGLYSLSSVVTVPSSSLGTQTYICNVNHKPSNTKVDKRVEPKSCDKTHTCPPCPAPEAAGGPSVFLFPPKPKDTLMISRTPEVTCVVVDVSHEDPEVKFNWYVDGVEVHNAKTKPREEQYNSTYRVVSVLTVLHQDWLNGKEYKCKVSNKALPAPIEKTISKAKGQPREPQVYTLPPSREEMTKNQVSLTCLVKGFYPSDIAVEWESNGQPENNYKTTPPVLDSDGSFFLYSKLTVDKSRWQQGNVFSCSVLHEALHAHTTRKELSLSP
light: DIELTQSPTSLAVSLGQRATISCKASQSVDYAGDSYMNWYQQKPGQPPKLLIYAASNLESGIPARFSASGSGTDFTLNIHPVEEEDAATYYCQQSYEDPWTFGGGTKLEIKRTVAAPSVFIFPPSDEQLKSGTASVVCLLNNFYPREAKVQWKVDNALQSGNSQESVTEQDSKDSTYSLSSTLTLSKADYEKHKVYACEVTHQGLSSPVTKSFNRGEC
B2: Anti-CD154 antibody (SLAPH0336a/SLAPL0336a) with Fc variant LALA+ACT5+KAES (SG1106) (antibody)
heavy: B1 heavy with K328A, E335S, T438Y
light: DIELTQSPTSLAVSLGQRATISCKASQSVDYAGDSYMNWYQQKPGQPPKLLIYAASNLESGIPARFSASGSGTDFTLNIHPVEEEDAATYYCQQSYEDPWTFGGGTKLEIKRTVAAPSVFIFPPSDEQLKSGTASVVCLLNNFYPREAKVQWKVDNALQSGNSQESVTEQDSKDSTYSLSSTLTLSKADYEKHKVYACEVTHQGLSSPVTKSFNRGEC
notes: also called LALA+KAES+ACT5
B3: Anti-CD154 antibody (SLAPH0336a/SLAPL0336a) with Fc variant LALA+ACT5 (SG1045) (antibody)
heavy: B1 heavy with T438Y
light: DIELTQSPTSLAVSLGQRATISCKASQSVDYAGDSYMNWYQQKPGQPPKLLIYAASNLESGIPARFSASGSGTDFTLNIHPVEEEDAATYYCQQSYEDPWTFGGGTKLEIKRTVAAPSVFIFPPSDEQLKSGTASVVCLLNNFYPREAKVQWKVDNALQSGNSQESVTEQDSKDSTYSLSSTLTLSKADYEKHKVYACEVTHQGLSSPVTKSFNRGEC
B4: Anti-CD154 antibody (SLAPH0336a/SLAPL0336a) with Fc variant LALA+ACT3+KAES (SG1105) (antibody)
heavy: B1 heavy with K328A, E335S
light: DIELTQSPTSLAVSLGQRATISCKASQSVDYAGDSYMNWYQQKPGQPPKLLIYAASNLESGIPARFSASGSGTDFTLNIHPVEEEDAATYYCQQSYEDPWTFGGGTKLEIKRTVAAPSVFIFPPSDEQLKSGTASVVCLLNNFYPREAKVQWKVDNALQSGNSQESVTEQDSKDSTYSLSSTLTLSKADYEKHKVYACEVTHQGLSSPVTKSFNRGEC
notes: also called LALA+KAES+ACT3

Chain of human C1q (Calbiochem) (P02745 23-245 limits assumed, chain 1 of 3): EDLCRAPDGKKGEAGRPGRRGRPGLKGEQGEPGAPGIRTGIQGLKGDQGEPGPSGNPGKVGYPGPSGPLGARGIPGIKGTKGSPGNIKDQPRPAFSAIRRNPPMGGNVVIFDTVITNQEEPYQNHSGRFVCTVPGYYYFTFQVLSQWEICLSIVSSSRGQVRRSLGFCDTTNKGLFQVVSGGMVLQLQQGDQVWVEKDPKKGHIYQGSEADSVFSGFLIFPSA
Chain of human C1q (Calbiochem) (P02746 28-253 limits assumed, chain 2 of 3): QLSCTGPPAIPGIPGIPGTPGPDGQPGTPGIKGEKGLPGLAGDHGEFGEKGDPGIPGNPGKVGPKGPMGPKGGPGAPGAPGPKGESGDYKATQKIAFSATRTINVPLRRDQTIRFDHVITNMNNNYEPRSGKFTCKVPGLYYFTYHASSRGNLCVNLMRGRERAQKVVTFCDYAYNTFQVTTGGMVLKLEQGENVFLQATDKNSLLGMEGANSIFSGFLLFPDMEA
Chain of human C1q (Calbiochem) (P02747 29-245 limits assumed, chain 3 of 3): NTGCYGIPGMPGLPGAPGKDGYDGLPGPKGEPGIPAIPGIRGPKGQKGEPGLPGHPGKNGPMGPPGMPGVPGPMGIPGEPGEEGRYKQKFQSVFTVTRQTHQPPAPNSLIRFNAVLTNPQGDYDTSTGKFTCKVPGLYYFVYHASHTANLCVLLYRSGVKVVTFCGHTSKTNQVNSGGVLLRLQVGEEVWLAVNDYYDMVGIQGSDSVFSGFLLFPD

For one assay, the target named is T1, human FcγRIIa (167R). Description: SPR (Biacore T200, pH 7.4, 25 °C): His-tagged FcγR captured by anti-His antibody; antibody injected at 100 nM alone (Ab alone) or as 1:1 complex with trimeric CD154 (CD154 IC); binding level / capture level [C]. In general terms: SPR reads the build-up and loss of mass on a sensor chip optically.
For B1, the binding result is on record as “no binding (tested: 100 nM)”.
Still for that read-out and setting: next, B2: “no binding (tested: 100 nM)”; B3: “no binding (tested: 100 nM)”.
In the case of B4, the binding result is recorded as “no binding (tested: 100 nM)”.

The next assay concerns the target human C1q (Calbiochem) (human, UniProt P02745 23-245; P02746 28-253; P02747 29-245). Description: ELISA: antibody coated on the plate at the concentration shown, human C1q added, detected with HRP anti-human C1q, OD 450 nm.
Consider B1, for which the binding result is given as “binds”.
Same read-out and setting: next, B2: “binds”; B3: “binds”; B4: “binds”.

A further assay deals with T2, mouse FcγRIIb. Description: SPR (Biacore T200, pH 7.4, 25 °C): His-tagged FcγR captured by anti-His antibody; antibody injected at 100 nM alone (Ab alone) or as 1:1 complex with trimeric CD154 (CD154 IC); binding level / capture level [B].
For B1, the binding result is “no binding (tested: 100 nM)”.
Same read-out and setting: next, B2: “no binding (tested: 100 nM)”; B3: “no binding (tested: 100 nM)”; B4: “no binding (tested: 100 nM)”.

The target of the next assay is T3, human FcγRIIa (167H). The description is as above.
In the case of B1, the binding result is “no binding (tested: 100 nM)”.
Same read-out and setting: the entry for B2 is “no binding (tested: 100 nM)”; for B3 it is “no binding (tested: 100 nM)”.
With B4, the binding result was “no binding (tested: 100 nM)”.
